System: MS2 coat protein
Experiment: apparent KD of MS2 coat protein; designed switch direction (-1 OFF switch, 1 ON switch): -1; higher = weaker reporter binding
Method in brief: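 The reported apparent KD is a per-design median over clusters, from curve fits of normalised cluster fluorescence. Protein titrations used SNAP-549-labelled MS2 coat protein, doubled from 0.7 or 1.5 nM to 3 µM, in Tris-HCl pH 7.5 buffer with KCl, MgCl2, BSA, DTT, tRNA and Tween-20, with no input, 200 uM small-molecule ligand, or an oligonucleotide input. The RNA switches were transcribed on Illumina chips by stalled E. coli RNA polymerase.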

[1] = input ligand: microRNA oligo, concentration not stated
[2] = Eterna round: R95, input ligand: microRNA oligo, concentration not stated
[3] = Eterna round: R95, input ligand: FMN 200 uM
[4] = Eterna round: R95, input ligand: none

Q: How did the “apparent KD of MS2 coat protein” value (input ligand: FMN 200 uM) turn out when “GUGCGUGGCUAGGAUAUUGAGGAAUUUAGUCAGCGAGAAGGAGCCACAUGAGGAUCACCCAUGUGGUGAAGCUC [salish99_ex6_r4_001] (Eterna round: R97, puzzle: Exclusion 6)” was run?
A: 70.2 nM

Q: What about the “apparent KD of MS2 coat protein” value (input ligand: none) of the same sequence?
A: 17.9 nM

Q: For “GUGGCACAUGAGGAUCACCCAUGUUAGGAUAUGCUCAAAACGCCCUAGGGUAAGCUGUGUAGAAGGAGCAGGAC [Eternabot (L1) Solution 52] (Eterna round: R97, puzzle: Exclusion 1)”, which “apparent KD of MS2 coat protein” value (input ligand: FMN 200 uM) is on record?
A: 33.7 nM

Q: What about the “apparent KD of MS2 coat protein” value (input ligand: none) of the same sequence?
A: 35.6 nM

Q: Which “apparent KD of MS2 coat protein” value (input ligand: FMN 200 uM) does the source give for “GUGGCGGAUGCGAACAUGAGGAUCACCCAUGUACAGUCCCUACAGGAUAUCCGCAGUGCCUAGCAGGAGAAGGGUAGGAGCACA [Eternabot solution 40] (Eterna round: R96, puzzle: Exclusion NG 3)” here?
A: 16 nM

Q: And the “apparent KD of MS2 coat protein” value [1]?
A: 10.7 nM

Q: And the “apparent KD of MS2 coat protein” value (input ligand: none)?
A: 17.9 nM

Q: “GUGGGUCCUCACGGUGCUACAUGAGGAUCACCCAUGUGGAUUGAGGAUAUCGUAACCCGACGGGACGAGAAGGCAGUUUACUGU [Ex NG3 #99] (Eterna round: R96, puzzle: Exclusion NG 3)” was tested. Which “apparent KD of MS2 coat protein” value (input ligand: FMN 200 uM) did it give?
A: 66.2 nM

Q: What about the “apparent KD of MS2 coat protein” value [1] of the same sequence?
A: 14.8 nM

Q: And the “apparent KD of MS2 coat protein” value (input ligand: none)?
A: 27.2 nM

Q: What does the source list for “GUGGGUUACAUGAGGAUCACCCAUGUAUAGUGGGAAGAGAGAUAGGAUAUGAUGUGAGAAUUAUAUUAGAAGGAUCGAGACUAG [AK ExNG3-2.6] (Eterna round: R96, puzzle: Exclusion NG 3)”?
A: apparent KD of MS2 coat protein (input ligand: FMN 200 uM): 632 nM; apparent KD of MS2 coat protein [1]: 236 nM; apparent KD of MS2 coat protein (input ligand: none): 351 nM

Q: With “GUGGUACAUGAGGAUCACCCAUGUUAGGAUAUCGCGUGAGGUUUUACUUCCGCGCGCGCGAGAAGGGACGUCUU (puzzle: Exclusion 1)” as the sequence, how does the “apparent KD of MS2 coat protein” value [2] read?
A: 23.3 nM

Q: Which “apparent KD of MS2 coat protein” value [3] does the source give for “GUGGUCCGAGGAUAUAUUAUGUGAUACAUGAGGAUCACCCAUGUUAUAUGAUGGAUGUUAGUAGAAGGCGGACUAC [Mat - Exclusion 5 - JL mod - D82] (puzzle: Exclusion 5)” here?
A: 95.2 nM

Q: And the “apparent KD of MS2 coat protein” value [2]?
A: 86.2 nM

Q: And the “apparent KD of MS2 coat protein” value [4]?
A: 96.4 nM

Q: Which “apparent KD of MS2 coat protein” value (input ligand: FMN 200 uM) does the source give for “GUGGUCUAUGUAGGAUAUACGUUUGUGCGAUGCGUAGAAGGACAUGAGGAUCACCCAUGUGUGCGAGGAUCACCCGUGUGUUGU [double] (Eterna round: R96, puzzle: Exclusion NG 1)” here?
A: 158 nM

Q: What about the “apparent KD of MS2 coat protein” value [1] of the same sequence?
A: 83.9 nM

Q: What about the “apparent KD of MS2 coat protein” value (input ligand: none) of the same sequence?
A: 100 nM

Q: Which “apparent KD of MS2 coat protein” value [3] does the source give for “GUGGUGGGUUUUUCGAGUAACAUGAGGAUCACCCAUGUAUUAGUUGGAUGUAUCAAGCUUUGUGCUCGACUUAUAUA [JR_SV3TOV1_Sub044] (puzzle: Sensor v3, turn-off variant 1)” here?
A: 659 nM

Q: What about the “apparent KD of MS2 coat protein” value [2] of the same sequence?
A: 442 nM

Q: And the “apparent KD of MS2 coat protein” value [4]?
A: 696 nM

Q: What does the source list for “GUGGUUUGUGUAGGAUAUUCGUUUGUGCGGUGCGGAGAAGGACAUGAGGAUCACCCAUGUGUGCGAGGAUCACCCGUGUGUUGU [double 2 (less A)] (Eterna round: R96, puzzle: Exclusion NG 1)”?
A: apparent KD of MS2 coat protein (input ligand: FMN 200 uM): 55.6 nM; apparent KD of MS2 coat protein [1]: 40.3 nM; apparent KD of MS2 coat protein (input ligand: none): 50.5 nM

Q: “GUGUACAGAGGAUAUACACGAGUAGUUACGAAAGUAACUACACAUGAGGAUCACCCAUGUAGAAGGCUGUACAC [Dot plot directed] (puzzle: Exclusion 2)” was tested. Which “apparent KD of MS2 coat protein” value [2] did it give?
A: 20.4 nM

Q: “GUGUACUGAGGAUAUGCUGGAAUCUAGCGAAGCUAGGUUCCACAUGAGGAUCACCCAUGUAGAAGGCGGUACAC [Dot plot directed A v6] (puzzle: Exclusion 2)” was tested. Which “apparent KD of MS2 coat protein” value [2] did it give?
A: 29.1 nM

Q: “GUGUAGAUAGGAUAUGCUUAGAGCUUACGAAAGUAGGCUCUACAUGAGGAUCACCCAUGUAGAAGGGUCUACAC [Dot plot directed A v16] (puzzle: Exclusion 2)” was tested. Which “apparent KD of MS2 coat protein” value [2] did it give?
A: 24.9 nM

Q: “GUGUAGAUAGGAUAUGCUUUGAGCCUACGAAAGUACGCUCGACAUGAGGAUCACCCAUGUAGAAGGGUUUACAC [LRO-Excl2-05] (puzzle: Exclusion 2)” was tested. Which “apparent KD of MS2 coat protein” value [2] did it give?
A: 88.7 nM

Q: What does the source list for “GUGUAGUCAGGAUAUACAUAGGAAGAGAAGAUAAGAUAAGCACAUGAGGAUCACCCAUGUAGAAGGGACAGUGU [Excluse me!! 2 - Jieux - Exclusion 2] (puzzle: Exclusion 2)”?
A: apparent KD of MS2 coat protein [3]: 77.6 nM; apparent KD of MS2 coat protein [2]: 66.1 nM; apparent KD of MS2 coat protein [4]: 61 nM
